From patent US20240384250A1, “FIBROBLAST GROWTH FACTOR 23 MODULATING COMPOUNDS” (THE UAB RESEARCH FOUNDATION, priority 2021, published 2024)
Entries after “also recorded” stand apart in the source; their conditions may differ. Values belong to the molecule of their own block, whether it stands above or below them.

Columns and labels:
Assay in all cases: Pull-down of FGF23 with Fc-FGFR on protein A/G beads with sKL, heparin or PBS
Conditions in all cases: with heparin, or alone
[1] = biological target: T1, FGF23 binding to FGFR1c (Homo sapiens, UniProt P11362+Q9GZV9)
T1 construct: Fc-coupled FGFR ectodomains were immobilized on protein A/G beads; purchased R&D Systems 2604FG025/CF or 2629FG025/CF; 658FR050
T1 sequence (Q9GZV9 25-251): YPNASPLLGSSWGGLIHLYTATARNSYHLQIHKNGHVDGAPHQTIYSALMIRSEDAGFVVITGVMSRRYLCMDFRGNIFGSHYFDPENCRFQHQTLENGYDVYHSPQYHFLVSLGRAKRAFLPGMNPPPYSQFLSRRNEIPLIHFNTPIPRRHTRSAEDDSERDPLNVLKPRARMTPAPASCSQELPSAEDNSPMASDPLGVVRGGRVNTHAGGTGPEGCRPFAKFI
T1 sequence (P11362 22-376 limits assumed): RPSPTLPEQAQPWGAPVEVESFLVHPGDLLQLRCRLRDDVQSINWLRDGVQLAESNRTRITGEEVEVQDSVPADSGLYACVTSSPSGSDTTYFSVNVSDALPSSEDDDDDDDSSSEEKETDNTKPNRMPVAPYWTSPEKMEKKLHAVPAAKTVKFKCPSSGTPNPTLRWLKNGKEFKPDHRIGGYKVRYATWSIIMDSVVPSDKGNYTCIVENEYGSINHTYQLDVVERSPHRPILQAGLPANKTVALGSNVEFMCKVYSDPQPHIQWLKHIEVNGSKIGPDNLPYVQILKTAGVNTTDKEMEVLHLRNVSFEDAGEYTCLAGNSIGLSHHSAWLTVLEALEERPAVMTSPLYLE
Description: (§1) To study the interaction between Fc-tagged FGFR isoforms (Fc-FGFR), FGF isoforms, and sKL, immunoprecipitation studies were conducted. Protein A beads (6501, BioVision) and protein G beads (6511, BioVision) were used at 25 μl of a 50% stock slurry per sample in a total bead volume of 50 μl. Beads were washed 5× in activity buffer (50 mM Tris [pH 7.4], 200 mM NaCl, 0.01% Tween 20). Bead spin-down assays were all performed for 2 minutes at 5000 g. Beads were resuspended in 1 ml of activity buffer in a 1.5-ml snap cap tube. One microgram of Fc-FGFR1 to 4 was incubated with the beads for 1 hour on a bead rotator. Control samples were incubated with 2 μg of anti-FGF antibody instead of Fc-FGFR. Beads were then pelleted at 5000 g for 2 minutes and washed 5× with activity buffer. Beads were resuspended and incubated with different combinations of 500 ng of FGF, 1 μg of sKL, 1.6 United States Pharmacopeia (USP) units of heparin, or phosphate-buffered saline (PBS). Beads were incubated for 1 hour on a tube rotator, and beads were pelleted and washed as before. One hundred microliters of 1× Laemmli sample buffer (1610737, Bio-Rad) with 1.42 M 2-mercaptoethanol was added, and samples were boiled for 5 minutes. Samples were analyzed using SDS-PAGE and Western blotting.
(§2) The sample (20 μl) was loaded onto Mini-PROTEAN TGX Precast Gel 4-20% for experiments with <9 samples (4568094, Bio-Rad) or Criterion TGX Precast Gel 4-20% (5678094, Bio-Rad) for experiments with >9 samples. Gels were run in 1× Tris/Glycine/SDS buffer (1610732, Bio-Rad) at 150 V and stopped when the sample dye reached the end of the gel. Gels were removed and electrotransferred via a semi-dry cassette (1703940, Bio-Rad) in I× Tris/Glycine buffer (1610734, Bio-Rad) with 20% methanol. Gels were transferred onto polyvinylidene diflouride membranes (IPVH00010, Millipore) at 20 V for 1 hour. Membranes were then blocked in 5% dried milk with 0.5% Tween 20 diluted in Tris-buffered saline (TBST; pH 7.5) for 1 hour and probed with antibodies against specific antigens at 1:1000 in TBST with 5% dried milk. Blots were washed 3× for 5 minutes in TBST and probed with HRP-coupled secondary antibodies against specific species at 1:10,000 in TBST with 5% dried milk. Membranes were imaged on the SRX-101A X-ray film developer (Konica Minolta).

[2] = biological target: T2, FGF23 binding to FGFR3c (Homo sapiens, UniProt P22607+Q9GZV9)
T2 construct: Fc-coupled FGFR ectodomains were immobilized on protein A/G beads; purchased R&D Systems 2604FG025/CF or 2629FG025/CF; 766FR050
T2 sequence (Q9GZV9 25-251): T1 sequence (Q9GZV9 25-251)
T2 sequence (P22607 23-375 limits assumed): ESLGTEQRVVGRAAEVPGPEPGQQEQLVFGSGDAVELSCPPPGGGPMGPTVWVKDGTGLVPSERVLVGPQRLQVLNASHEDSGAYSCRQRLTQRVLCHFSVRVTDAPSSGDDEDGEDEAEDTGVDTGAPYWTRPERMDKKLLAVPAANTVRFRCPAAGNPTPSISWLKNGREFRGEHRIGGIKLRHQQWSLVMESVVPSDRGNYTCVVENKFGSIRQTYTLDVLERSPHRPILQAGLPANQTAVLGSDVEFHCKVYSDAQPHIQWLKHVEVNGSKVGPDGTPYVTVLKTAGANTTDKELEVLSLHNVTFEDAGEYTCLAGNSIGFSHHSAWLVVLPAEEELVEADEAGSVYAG
Description: as §1, §2

[3] = biological target: T3, FGF23 binding to FGFR4 (Homo sapiens, UniProt P22455+Q9GZV9)
T3 construct: Fc-coupled FGFR ectodomains were immobilized on protein A/G beads; purchased R&D Systems 2604FG025/CF or 2629FG025/CF; 685FR050
T3 sequence (Q9GZV9 25-251): T1 sequence (Q9GZV9 25-251)
T3 sequence (P22455 22-369 limits assumed): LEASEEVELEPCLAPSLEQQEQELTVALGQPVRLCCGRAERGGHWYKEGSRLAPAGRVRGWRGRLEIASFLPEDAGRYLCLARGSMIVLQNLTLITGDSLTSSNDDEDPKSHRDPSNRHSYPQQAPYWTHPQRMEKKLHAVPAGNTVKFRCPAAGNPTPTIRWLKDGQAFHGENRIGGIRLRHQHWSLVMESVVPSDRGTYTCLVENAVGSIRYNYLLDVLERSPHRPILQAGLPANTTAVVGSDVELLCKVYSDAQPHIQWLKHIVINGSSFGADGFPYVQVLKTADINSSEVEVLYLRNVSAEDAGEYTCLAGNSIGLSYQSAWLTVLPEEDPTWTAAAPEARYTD
Description: as §1, §2

- FGF23 co-precipitation with Fc-FGFR1c [1]: no FGF23 binding was detected
- FGF23 co-precipitation with Fc-FGFR3c [2]: no FGF23 binding was detected
- FGF23 co-precipitation with Fc-FGFR4 [3]: no FGF23 binding was detected
B1: FGF23: recombinant fibroblast growth factor 23 protein from R&D Systems (protein)
chain: YPDTSPLLGSNWGSLTHLYTATARTSYHLQIHRDGHVDGTPHQTIYSALMITSEDAGSVVITGAMTRRFLCMDLHGNIFGSLHFSPENCKFRQWTLENGYDVYLSQKHHYLVSLGRAKRIFQPGTNPPPFSQFLARRNEVPLLHFYTVRPRRHTRSAEDPPERDPLNVLKPRPRATPVPVSCSRELPSAEEGGPAASDPLGVLRRGRGDARGGAGGADRCRPFPRFV

- FGF23 co-precipitation with Fc-FGFR3c [2]: could coprecipitate sKL and FGF23
- FGF23 co-precipitation with Fc-FGFR4 [3]: could coprecipitate sKL and FGF23
B2: sKL: recombinant soluble α-klotho ectodomain, mouse aa 35-982 and human aa 34-981, FLAG- or Strep/His-tagged, purified from HEK293 cells (protein)
chain: EPGDGAQTWARFSRPPAPEAAGLFQGTFPDGFLWAVGSAAYQTEGGWQQHGKGASIWDTFTHHPLAPPGDSRNASLPLGAPSPLQPATGDVASDSYNNVFRDTEALRELGVTHYRFSISWARVLPNGSAGVPNREGLRYYRRLLERLRELGVQPVVTLYHWDLPQRLQDAYGGWANRALADHFRDYAELCFRHFGGQVKYWITIDNPYVVAWHGYATGRLAPGIRGSPRLGYLVAHNLLLAHAKVWHLYNTSFRPTQGGQVSIALSSHWINPRRMTDHSIKECQKSLDFVLGWFAKPVFIDGDYPESMKNNLSSILPDFTESEKKFIKGTADFFALCFGPTLSFQLLDPHMKFRQLESPNLRQLLSWIDLEFNHPQIFIVENGWFVSGTTKRDDAKYMYYLKKFIMETLKAIKLDGVDVIGYTAWSLMDGFEWHRGYSIRRGLFYVDFLSQDKMLLPKSSALFYQKLIEKNGFPPLPENQPLEGTFPCDFAWGVVDNYIQVDTTLSQFTDLNVYLWDVHHSKRLIKVDGVVTKKRKSYCVDFAAIQPQIALLQEMHVTHFRFSLDWALILPLGNQSQVNHTILQYYRCMASELVRVNITPVVALWQPMAPNQGLPRLLARQGAWENPYTALAFAEYARLCFQELGHHVKLWITMNEPYTRNMTYSAGHNLLKAHALAWHVYNEKFRHAQNGKISIALQADWIEPACPFSQKDKEVAERVLEFDIGWLAEPIFGSGDYPWVMRDWLNQRNNFLLPYFTEDEKKLIQGTFDFLALSHYTTILVDSEKEDPIKYNDYLEVQEMTDITWLNSPSQVAVVPWGLRKVLNWLKFKYGDLPMYIISNGIDDGLHAEDDQLRVYYMQNYINEALKAHILDGINLCGYFAYSFNDRTAPRFGLYRYAADQFEPKASMKHYRKIIDSNGFPGPETLERFCPEEFTVCTECSFFHTRKS
modifications: left off: small tags and cut ends
notes: recombinant soluble α-klotho ectodomain, mouse aa 35-982 and human aa 34-981, FLAG- or Strep/His-tagged, purified from HEK293 cells
- FGF23 co-precipitation with Fc-FGFR1c [1]: could coprecipitate sKL and FGF23; also recorded: complex formation with FGFR1c
